The results in this text go back to patent US5844093, “Anti-EGFR single-chain Fvs and anti-EGFR antibodies” (Merck Patent Gesellschaft mit Beschrankter Haftung, dated 1998).

To fix the notation:
B1: scFv No. L2 12B (scFv, V domains shown)
VH: QVQLQESGPELVKPGALVKISCKASGYTFTSYWMHWVKQRPGQGLEWIGEIDPSDSYTNYNQKFKGKATLTVDKSSNTAYMQLSSLTSEDSAVYYCARSDYGSSHFDYWGQGTTVTVSS
VL: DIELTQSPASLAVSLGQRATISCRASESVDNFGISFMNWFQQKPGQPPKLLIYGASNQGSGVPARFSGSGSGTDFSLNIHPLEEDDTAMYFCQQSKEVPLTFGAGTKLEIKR
B2: scFv No. S4 2D (scFv, V domains shown)
VH: EVKLQQSGPELVKPGASVKMSCKASGYAFISFVMHWVKQKPGQGLEWIGFINPYNDGTKYNEKFKDKATLTSDKSSSTAYMELSSLTSEDSAVYYCASGDYDRAMDYWGQGTTVTVSS
VL: DIELTQSPTTMAASPGEKITITCSASSSISSNYLHWYQQKPGFSPKLLIYRTSNLASGVPARFSGSGSGTSYSLTIGTMEAEDVATYYCQQGSSIPRTFGGGTKLEIKR
B3: scFv No. L2 11C (scFv, V domains shown)
VH: QVQLQESGPELVRPGASVKMSCKASGYTFTTYWIHWMKQRPGQGLQWIGMIDPSNSETRLNQNFRDKATLSVDKSSNKAYMQLSSLTSEDSAIYYCARWDYGSGHFDYWGQGTTVTVSS
VL: DIELTQSPASLAASVGETVTITCRASENIYYSLAWYQQKQGKSPQLLIYSASALEDGVPSRFSGSGSGTQYSLKINNMQPEDTATYFCKQTYDVPWTFGGGTKLEIKR
B4: scFv No. L3 11D (scFv, V domains shown)
VH: B1 VH with Q1E, E6Q, P9A, L17S, I20L, N77S
VL: not shown

Substitutions are numbered along the chain they refer to.

For the first assay, the target named is purified EGFR (human, UniProt P00533). As to the kind of experiment: ELISA, purified EGFR, bacterial supernatants.
Method: Binding of scFvs to EGFR. The concentrations of scFvs in bacterial supernatants were estimated and the scFvs tested by ELISA for binding to purified EGFR.
Antigen-binding ELISAs were carried out with EGFR-coated plates (2.5 µg/ml). Supernatants containing scFvs were diluted in PBSM and added to the plates. Bound scFvs were detected using 9E10 antibody as described above. Supernatants were also tested for binding to a panel of unrelated proteins and plastic. ELISA plates were coated overnight at 100 µg/ml with ovalbumin, hen egg lysozyme, cytochrome c, glyceraldehyde 3-phosphate dehydrogenase, murine albumin (CBA strain), and BSA. Undiluted supernatants containing 2% milk powder were added in duplicate to the coated plates and bound scFvs detected as described above.
B1: the binding result is reported as “binds”.

The next assay concerns the target EGFR on EGFR-bearing tumor cells (human, UniProt P00533). Kind of assay: cell ELISA on A431 and MDA MB 468 cells, bacterial supernatants. (In an ELISA, binding on a coated surface is turned into a signal by an enzyme label.)
Method: The scFvs were tested by ELISA for binding to three tumor cell lines. […] Cell line SK-MEL-23 is a ganglioside-bearing melanoma cell line and was included as a negative control.
Cells were grown to confluency in poly-D-lysine-treated 96 well tissue culture trays (Nunc). Cells were washed with DMEM and blocked at 37° C. for 2 h with PBS containing 2.5% BSA. After aspiration, supernatants were added to each well together with an equal volume of 2xYT media containing 4% milk powder and incubated at 40C for 1 h. Bound scFvs were detected as described above.
With B1, the binding result is “binds”.

The target of the next assay is murine albumin (CBA strain) (murine, UniProt P07724). As to the kind of experiment: ELISA, bacterial supernatants.
Method: (§1) The scFvs were tested by ELISA for binding to plastic and to a panel of unrelated proteins (ovalbumin, hen egg lysozyme, cytochrome c, glyceraldehyde 3-phosphate dehydrogenase, CBA albumin, and BSA).
(§2) Supernatants containing scFvs were diluted in PBSM and added to the plates. Bound scFvs were detected using 9E10 antibody as described above. Supernatants were also tested for binding to a panel of unrelated proteins and plastic. ELISA plates were coated overnight at 100 µg/ml with ovalbumin, hen egg lysozyme, cytochrome c, glyceraldehyde 3-phosphate dehydrogenase, murine albumin (CBA strain), and BSA. Undiluted supernatants containing 2% milk powder were added in duplicate to the coated plates and bound scFvs detected as described above.
On to B2, for which the binding result was “no binding”.
On to B3, for which the binding result is “no binding”.
The same measure, in the same setting: the same measure for B1: “no binding”.
Still for that read-out and setting: the value for B4 was “no binding”.

For another assay, the target named is hen egg lysozyme (hen, UniProt P00698). Kind of assay: ELISA, bacterial supernatants.
Method: as §1, §2
Take B2: the binding result is given as “no binding”.
With B3, the binding result is on record as “no binding”.
As for B1, the binding result is “no binding”.
The same measure, in the same setting: the value for B4 was “no binding”.

The target in another assay is BSA (Bos taurus (Bovine), UniProt P02769). Kind of assay: ELISA, bacterial supernatants.
Method: as §1, §2
As to B2, the binding result is “no binding”.
Same read-out and setting: the value for B3 was “no binding”; that for B1 was “no binding”.
Same read-out and setting: the same measure for B4: “no binding”.

The next assay concerns the target ovalbumin (Gallus gallus (Chicken), UniProt P01012). Kind of assay: ELISA, bacterial supernatants.
Method: as §1, §2
In the case of B2, the binding result is “no binding”.
Consider B3, for which the binding result was “no binding”.
As for B1, the binding result is reported as “no binding”.
The same measure, in the same setting: the same measure for B4: “no binding”.
